According to patent publication US20200216833A1:

Target: SH2 domain of Abl1 kinase fused to 434 cI repressor (UniProt P16117)
Test: cell-based or functional assay

ON propagation on this AP combo, against the wt HA4 monobody: 105 fold lower
Substance: HA4 Y84A monobody (from UniProt P0A800 1-91) (designed binder)
